Assay [1] addresses T1, yeast ENIP1 protein fragment (composed of amino acids 170-469) (S. cerevisiae, UniProt Q99207 170-469).
T1 construct: Truncation construct used in the yeast two-hybrid system
T1 sequence: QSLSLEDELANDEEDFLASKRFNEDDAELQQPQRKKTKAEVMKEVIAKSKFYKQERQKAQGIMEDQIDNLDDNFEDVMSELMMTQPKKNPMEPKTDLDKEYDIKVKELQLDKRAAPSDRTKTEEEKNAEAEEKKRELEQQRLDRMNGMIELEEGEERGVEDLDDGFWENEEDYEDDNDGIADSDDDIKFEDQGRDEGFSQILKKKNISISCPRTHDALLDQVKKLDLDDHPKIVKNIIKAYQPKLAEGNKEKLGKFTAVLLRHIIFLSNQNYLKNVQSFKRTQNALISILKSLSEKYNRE
The assay can be described thus: yeast two-hybrid.

Assay [2] addresses T2, yeast Emg1-Nuclear Interacting Protein 1 (ENIP1), S. cerevisiae gene locus YDL148c (S. cerevisiae, UniProt Q99207 1-810, limits assumed).
T2 construct: 810 amino acids; also called yeast ENIP1; yENIP
T2 sequence: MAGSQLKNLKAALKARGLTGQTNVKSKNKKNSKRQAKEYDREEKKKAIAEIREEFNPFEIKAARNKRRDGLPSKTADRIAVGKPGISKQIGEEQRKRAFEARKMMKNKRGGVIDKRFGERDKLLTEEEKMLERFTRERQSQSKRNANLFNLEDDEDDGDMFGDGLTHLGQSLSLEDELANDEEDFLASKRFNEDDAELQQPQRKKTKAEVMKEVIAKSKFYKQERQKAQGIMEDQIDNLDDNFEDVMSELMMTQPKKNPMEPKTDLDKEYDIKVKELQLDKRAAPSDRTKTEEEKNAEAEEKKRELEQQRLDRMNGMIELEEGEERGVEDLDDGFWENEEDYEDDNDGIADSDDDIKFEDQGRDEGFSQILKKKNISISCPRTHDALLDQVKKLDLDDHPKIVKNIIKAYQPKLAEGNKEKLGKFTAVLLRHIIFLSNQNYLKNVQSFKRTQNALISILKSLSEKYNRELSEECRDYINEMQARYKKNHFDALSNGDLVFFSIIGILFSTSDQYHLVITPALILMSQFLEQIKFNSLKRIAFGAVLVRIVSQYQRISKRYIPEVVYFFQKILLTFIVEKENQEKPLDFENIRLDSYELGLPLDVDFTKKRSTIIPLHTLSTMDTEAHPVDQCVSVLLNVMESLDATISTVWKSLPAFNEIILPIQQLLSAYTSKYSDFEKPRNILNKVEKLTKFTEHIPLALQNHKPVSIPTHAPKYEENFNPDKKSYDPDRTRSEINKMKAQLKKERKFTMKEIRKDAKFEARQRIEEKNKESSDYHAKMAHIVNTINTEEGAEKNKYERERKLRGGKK
The assay can be described thus: yeast two-hybrid, cell growth assay on selective (no histidine) medium.

B1: mouse Emg1 protein (other)
chain: MSAASGGFQPRERRFSVQEQDWETTPPKKLRLGAGSKCGGRRLIVVLEGASLETVKVGKTYELLNCDRHKSMLLKNGRDPGEVRPDITHQSLLMLMDSPLNRAGLLQVYIHTQKNVLIEVNPQTRIPRTFDRFCGLMVQLLHKLSVRAADGPQKLLKVIKNPVSDHFPVGCMKIGTSFSVEDISDIRELVPSSDPVVFVVGAFAHGKVSVEYTEKMVSISNYPLSAALTCAKVTTAFEEVWGVI
notes: Used as a two-hybrid fusion; also called mEmg1; murine Emg1
For B1, the binding result in assay [1] and in assay [2] was “binds” in each case.

The values above are taken from patent US6383753 (REGENTS OF THE UNIVERSITY OF MICHIGAN, dated 2002).
